Measured values from patent US20200206312A1.
Values joined by “and” are separate entries in the source; they are usually repeats but may differ in a detail not shown here. Identical values can stand only once. Like-named read-outs stand apart in the source and are kept apart here. Bridge positions count the residues as written; N and C are the ends. Ends that are not written are not given here. * marks the point of attachment. Biotin = O=C1N[C@H]2[C@H](CS[C@H]2CCCCC(=O)*)N1; Capped = not defined here

B1: NH2(Biotin)-C(Capped)-Y-G-P-Q-C(Capped)-L-C(Capped)-R-COOH (peptide)
peptide: Biotin-C(Capped)YGPQC(Capped)LC(Capped)R-OH
modifications: reading uncertain; also: printed as NH2(Biotin)-C(Capped)-Y-G-P-Q-C(Capped)-L-C(Capped)-R-COOH
B2: NH2(Biotin)-Y-G-P-Q-C(Capped)-L-C(Capped)-R-COOH (peptide)
peptide: Biotin-YGPQC(Capped)LC(Capped)R-OH
modifications: reading uncertain; also: printed as NH2(Biotin)-Y-G-P-Q-C(Capped)-L-C(Capped)-R-COOH
B3: tri-peptide 1/2/3 from trypsin digestion of N-terminal biotinylated TM601 (UM-1438-127-1) (peptide)
chain 1: MCMPCFTTDHQMAR
chain 2: CYGPQCLCR
chain 3: KCDDCCGGK
modifications: not fully specified (N-terminus); cysteine pairing not given here
B4: tri-peptide 1/2/3 from trypsin digestion of Lys-27 biotinylated TM601 (UM-1438-118) (peptide)
chain 1: MCMPCFTTDHQMAR
chain 2: GKCYGPQCLCR
chain 3: KCDDCCGGK
modifications: not fully specified; modifications not checked

Columns and labels:
[1] = molecular target: T1, Recombinant human NRP1 with His Tag (Sino Biological Inc.; Cat #1001-H08H) (human), O14786
[2] = molecular target: T1, Recombinant human NRP1 with His Tag …; remark: listed apart in the source
[3] = molecular target: T1, Recombinant human NRP1 with His Tag …; experiment: BLI (Octet Red96), biotinylated peptide on streptavidin sensor, NRP1 in solution
[4] = molecular target: T1, Recombinant human NRP1 with His Tag …; remark: listed apart in the source

T1 sequence (O14786 other isoform, or with tags, fused parts or gaps H08H H08H limits assumed): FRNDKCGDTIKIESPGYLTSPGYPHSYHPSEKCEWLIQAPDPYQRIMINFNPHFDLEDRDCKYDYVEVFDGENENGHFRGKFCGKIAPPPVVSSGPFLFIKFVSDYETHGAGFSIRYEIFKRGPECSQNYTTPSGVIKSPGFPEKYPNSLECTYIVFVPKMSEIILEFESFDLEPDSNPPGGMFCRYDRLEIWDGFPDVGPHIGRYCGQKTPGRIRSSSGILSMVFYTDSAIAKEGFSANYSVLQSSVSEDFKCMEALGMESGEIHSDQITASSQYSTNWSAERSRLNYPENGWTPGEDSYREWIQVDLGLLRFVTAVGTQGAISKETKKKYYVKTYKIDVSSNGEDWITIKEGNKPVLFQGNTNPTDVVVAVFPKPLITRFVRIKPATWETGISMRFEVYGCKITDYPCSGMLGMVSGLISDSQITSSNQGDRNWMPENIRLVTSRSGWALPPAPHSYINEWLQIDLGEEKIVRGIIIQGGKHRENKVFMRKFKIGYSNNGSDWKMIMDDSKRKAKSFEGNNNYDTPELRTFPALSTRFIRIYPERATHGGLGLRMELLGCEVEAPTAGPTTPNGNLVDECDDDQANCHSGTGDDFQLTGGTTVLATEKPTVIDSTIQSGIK

Binder | Kd [2] | Kd [4] | other results
B1 |  |  | Kd [1]: 153 nM and 335 nM
B2 | 300 nM and 294 nM |  | 
Biotin-C(Capped)LC(Capped)R-OH (reading uncertain; also: printed as NH2(Biotin)-C(Capped)-L-C(Capped)-R-COOH) [NH2(Biotin)-C(Capped)-L-C(Capped)-R-COOH] |  |  | Kd [3]: 335 nM
Biotin-CYGPQCLC(Capped)R-OH (disulfide 1-6; reading uncertain) [NH2(Biotin)-C-Y-G-P-Q-C-L-C(Capped)-R-COOH with S-S between the first two C] | 410 nM |  | 
B3 |  | 173 nM and 70 nM | 
B4 |  | 112 nM and 187 nM | 
